Source: patent US20090118183A1 (AFFYMAX, published 2009)
Read-outs that look alike come from different tables or passages of the source. Bridge positions count the residues as written; N and C are the ends. Square brackets hold non-standard residues; d marks the D form. Ends that are not written are not given here. 1Nal = N[C@@H](Cc1cccc2ccccc12)C(=O)O; Sar = CNCC(=O)O

Assays:
human EPO-R [1] = biological target: T1, human EPO-R (human, UniProt P19235 25-508); assay: cell-based or functional assay
T1 sequence (looked up): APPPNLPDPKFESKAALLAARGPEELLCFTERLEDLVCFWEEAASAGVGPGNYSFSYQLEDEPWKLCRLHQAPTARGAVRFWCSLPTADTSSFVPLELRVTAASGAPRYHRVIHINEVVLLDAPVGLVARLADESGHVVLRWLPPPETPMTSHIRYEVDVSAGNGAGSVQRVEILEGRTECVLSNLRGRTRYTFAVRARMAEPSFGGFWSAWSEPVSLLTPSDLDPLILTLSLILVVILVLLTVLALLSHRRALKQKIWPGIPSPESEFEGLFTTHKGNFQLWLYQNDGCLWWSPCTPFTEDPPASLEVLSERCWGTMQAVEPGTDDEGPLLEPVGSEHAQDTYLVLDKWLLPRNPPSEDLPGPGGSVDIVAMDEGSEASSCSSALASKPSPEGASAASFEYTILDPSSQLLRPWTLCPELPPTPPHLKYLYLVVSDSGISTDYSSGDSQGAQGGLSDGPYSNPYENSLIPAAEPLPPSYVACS

[2] = biological target: T2, chimeric receptor comprising the extra-cellular portion of the human EPO receptor to the intra-cellular … (human, UniProt P19235 25-250; Q99062 651-836, limits assumed); assay: cell-based or functional assay
T2 sequence (looked up): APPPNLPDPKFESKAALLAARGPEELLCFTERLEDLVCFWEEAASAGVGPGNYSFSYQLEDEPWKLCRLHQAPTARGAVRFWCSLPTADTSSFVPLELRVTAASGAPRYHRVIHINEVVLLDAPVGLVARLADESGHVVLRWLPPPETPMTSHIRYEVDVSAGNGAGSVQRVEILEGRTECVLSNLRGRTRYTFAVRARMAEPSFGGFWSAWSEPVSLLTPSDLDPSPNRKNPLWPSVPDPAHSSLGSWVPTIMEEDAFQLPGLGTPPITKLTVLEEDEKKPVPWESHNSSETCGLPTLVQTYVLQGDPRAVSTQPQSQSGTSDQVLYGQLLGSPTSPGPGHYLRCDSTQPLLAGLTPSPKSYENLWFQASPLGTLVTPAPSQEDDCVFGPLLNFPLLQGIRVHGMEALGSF

[3] = biological target: T3, Recombinant Human EPO R/Fc Chimera (human, UniProt P19235 25-250); assay: radioligand competition: displacement of 125I-EPO from recombinant human EPO R/Fc, Protein-G Sepharose pull-down
T3 construct: extracellular domain; Bought reagent (R&D Systems, catalog 963-ER); also called recombinant EPOr extracellular domain fused to the Fc portion of human IgG1; recombinant erythropoietin receptor; not shown: Fc portion of human IgG1
T3 sequence (looked up): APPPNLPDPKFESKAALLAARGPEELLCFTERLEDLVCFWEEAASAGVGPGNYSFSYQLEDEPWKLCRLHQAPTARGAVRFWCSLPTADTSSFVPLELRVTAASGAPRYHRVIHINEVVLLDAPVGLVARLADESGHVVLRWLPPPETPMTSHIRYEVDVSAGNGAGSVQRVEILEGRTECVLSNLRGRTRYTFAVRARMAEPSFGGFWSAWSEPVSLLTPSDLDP

human EPO-R [4] = biological target: T1, human EPO-R; assay: cell-based or functional assay; remark: listed apart in the source
[5] = biological target: T2, chimeric receptor comprising the …; assay: cell-based or functional assay; remark: listed apart in the source
[6] = biological target: recombinant EPO-R (produced in Chinese Hamster Ovary cells as a fusion protein to a portion of the human … (human, UniProt P05187 489-506)); assay: competitive binding; column headed only 'IC50 (pM)'; taken as the AQ bead proximity assay against the biotinylated peptide tracer (SEQ ID NO: 4) per paragraph 299

B1: Peptide III (SEQ ID NO: 3) (peptide)
peptide: Ac-GGLYACHMGPIT[1Nal]VCQPLR[Sar]
modifications: disulfide 6-15; also: homodimer: C-termini joined to alpha- and epsilon-amino groups of a lysine linker carrying spacer and PEG, not shown
Proliferation EC50 (human EPO-R [1]): 72 nM
Reporter EC50 (pM) [2]: 150 pM

B2: Peptide I (SEQ ID NO: 2) (peptide)
peptide: Ac-GGLYACHMGPIT[1Nal]VCQPLR[Sar]K
modifications: disulfide 6-15; not fully specified (residue 21); printed as (AcG)GLYACHMGPIT(1-nal)VCQPLR(MeG)K; also: homodimer, Lys21 epsilon-N joined to branched tertiary amide linker carrying PEG
notes: also called Peptide 1
IC50 [3]: 0.111 nM
Proliferation EC50 (pM) (human EPO-R [4]): 165 pM
Reporter EC50 (pM) [5]: 195 pM

B3: Peptide II (SEQ ID NO: 3) (peptide)
peptide: Ac-GGLYACHMGPIT[1Nal]VCQPLR[Sar]
modifications: disulfide 6-15; also: homodimer: C-termini joined to alpha- and epsilon-amino groups of a lysine linker carrying spacer and PEG, not shown
IC50 [6]: 0.11 nM
